B1: RAB40A (parent)
chain: NWLGRPSKVLSLQDLCCRTIVSCT
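Also: lentivirally expressed fusions sorted by FACS into six bins by GFP to DsRed ratio, PSI derived from sequencing read proportions per bin multiplied by bin number.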

Variants of: B1
Test: protein stability index of a GFP-peptide fusion (GPS, HEK-293T) (PSI 1-6); higher = more stable
Details: c terminus: a fixed tail appended
Variant L3Y has a protein stability index of 2.51. L3W showed a protein stability index of 2.11. In the case of K8R, the protein stability index is reported as 2.65. With K8L the protein stability index was 2. K8N gave a protein stability index of 2.52. For K8C, the protein stability index was 2.08. K8D gave a protein stability index of 2.1. K8P showed a protein stability index of 2.29. In the case of K8I, the protein stability index is reported as 2.11. Variant K8Y has a protein stability index of 1.96. In the case of K8T, the protein stability index is reported as 1.88. K8M gave a protein stability index of 1.75. K8Q showed a protein stability index of 1.97. For K8W, the protein stability index was 2.33. Variant K8H has a protein stability index of 2.16. K8S gave a protein stability index of 2.31. K8E gave a protein stability index of 2.26. K8V gave a protein stability index of 1.89. K8G gave a protein stability index of 2.01. Variant K8F has a protein stability index of 2.35. With K8A the protein stability index was 1.98. For S7W, the protein stability index was 1.82. Variant S7A has a protein stability index of 2.24. Variant S7F has a protein stability index of 2.28. For S7R, the protein stability index was 2.02. For S7D, the protein stability index was 2.28. Variant S7H has a protein stability index of 1.96. S7P gave a protein stability index of 2.27. Work on S7C yielded a protein stability index of 2.21. Work on S7N yielded a protein stability index of 1.95. Variant S7Y has a protein stability index of 1.92. Variant S7G has a protein stability index of 2.15. Variant S7T has a protein stability index of 2.41. Variant S7I has a protein stability index of 2.25. Work on S7K yielded a protein stability index of 2.59. In the case of S7M, the protein stability index is reported as 2.03. S7L showed a protein stability index of 2.13. Work on S7V yielded a protein stability index of 2.22. Work on S7Q yielded a protein stability index of 2.47. S7E showed a protein stability index of 2.12. Variant V9Y has a protein stability index of 2.23. Variant V9E has a protein stability index of 2.3. Work on V9M yielded a protein stability index of 2.23. Work on V9L yielded a protein stability index of 2.12. Variant V9C has a protein stability index of 2.07. Variant V9I has a protein stability index of 2.36. In the case of V9P, the protein stability index is reported as 2.09. Work on V9G yielded a protein stability index of 2.32. V9F gave a protein stability index of 1.93. V9A gave a protein stability index of 2.31. With V9S the protein stability index was 2.05. For V9Q, the protein stability index was 2.2. For V9R, the protein stability index was 1.85. Variant V9K has a protein stability index of 2.29. V9W showed a protein stability index of 2.16. In the case of V9H, the protein stability index is reported as 2.21. Variant V9D has a protein stability index of 2.28. V9N gave a protein stability index of 2.4. In the case of V9T, the protein stability index is reported as 2.45. P6H showed a protein stability index of 2.21. In the case of P6W, the protein stability index is reported as 2.11. P6E gave a protein stability index of 2.55. For P6N, the protein stability index was 2.66. For P6I, the protein stability index was 2.4. In the case of P6M, the protein stability index is reported as 1.76. In the case of P6S, the protein stability index is reported as 2.38. P6Q gave a protein stability index of 2.06. Variant P6V has a protein stability index of 1.91. For P6C, the protein stability index was 2.13. P6K gave a protein stability index of 2.06. Variant P6R has a protein stability index of 2.29. For P6G, the protein stability index was 2.25. Variant P6A has a protein stability index of 1.79. For P6L, the protein stability index was 1.76. Variant P6D has a protein stability index of 2.48. Work on P6Y yielded a protein stability index of 1.88. P6F gave a protein stability index of 2.17. P6T gave a protein stability index of 2.14. Work on R5K yielded a protein stability index of 2.42. Variant R5V has a protein stability index of 2.52. Variant R5Q has a protein stability index of 2.55. In the case of R5H, the protein stability index is reported as 2.25. Work on R5W yielded a protein stability index of 3.09. Work on R5D yielded a protein stability index of 2.51. R5F gave a protein stability index of 2.27. In the case of R5G, the protein stability index is reported as 2.35. Variant R5E has a protein stability index of 2.7. Variant R5P has a protein stability index of 3.14. R5Y showed a protein stability index of 2.06. Variant R5I has a protein stability index of 2.2. R5C gave a protein stability index of 2.76. In the case of R5T, the protein stability index is reported as 2.42. Work on R5L yielded a protein stability index of 2.06. In the case of R5A, the protein stability index is reported as 2.46. In the case of R5N, the protein stability index is reported as 2.56. R5S gave a protein stability index of 2.69. R5M showed a protein stability index of 2.85. For S11H, the protein stability index was 1.92. S11G gave a protein stability index of 1.54. In the case of S11M, the protein stability index is reported as 1.97. S11Y gave a protein stability index of 2.03. S11C gave a protein stability index of 1.66. Variant S11N has a protein stability index of 2.22. Variant S11V has a protein stability index of 2.74. Work on S11R yielded a protein stability index of 2.2. Work on S11E yielded a protein stability index of 2.01. Variant S11K has a protein stability index of 2.67. Work on S11Q yielded a protein stability index of 2.11. Work on S11W yielded a protein stability index of 1.77. In the case of S11T, the protein stability index is reported as 2.6. Work on S11P yielded a protein stability index of 2.14. Work on S11L yielded a protein stability index of 1.86. S11A gave a protein stability index of 1.88. Work on S11D yielded a protein stability index of 1.9. S11F gave a protein stability index of 1.67. In the case of L10P, the protein stability index is reported as 2.62. Variant L10A has a protein stability index of 2.52. With L10K the protein stability index was 2.35. Variant L10T has a protein stability index of 2.49. Work on L10W yielded a protein stability index of 1.93. L10I showed a protein stability index of 2.41. For L10Q, the protein stability index was 2.24. Variant L10D has a protein stability index of 2.31. Work on L10R yielded a protein stability index of 2.6. In the case of L10M, the protein stability index is reported as 2.56. Work on L10H yielded a protein stability index of 2.07. L10S gave a protein stability index of 2.57. L10C showed a protein stability index of 2.04. Variant L10F has a protein stability index of 2.02. L10V gave a protein stability index of 2.09. Variant L10E has a protein stability index of 2.15. With L10G the protein stability index was 2.64. L10Y gave a protein stability index of 2.43. With L10N the protein stability index was 2.22. For G4T, the protein stability index was 2.07. G4N gave a protein stability index of 2.27. G4E gave a protein stability index of 2.77. G4A gave a protein stability index of 2.73. With G4M the protein stability index was 2.34. In the case of G4P, the protein stability index is reported as 2.42. Variant G4F has a protein stability index of 2.23. In the case of G4K, the protein stability index is reported as 2.48. G4S gave a protein stability index of 2.21. With G4V the protein stability index was 2.56. With G4R the protein stability index was 2.42. For G4W, the protein stability index was 2.09. With G4I the protein stability index was 2.13. G4L showed a protein stability index of 2.29. G4Q gave a protein stability index of 2.34. G4C showed a protein stability index of 1.5. With G4D the protein stability index was 2.57. In the case of G4Y, the protein stability index is reported as 2.35. In the case of G4H, the protein stability index is reported as 2.33. With L12A the protein stability index was 1.38. L12P showed a protein stability index of 1.48. Variant L12G has a protein stability index of 3.06. Variant L12M has a protein stability index of 1.95. Work on L12C yielded a protein stability index of 1.79. Variant L12D has a protein stability index of 1.8. For L12K, the protein stability index was 2.15. In the case of L12I, the protein stability index is reported as 2.27. With L12F the protein stability index was 2.75. Work on L12Q yielded a protein stability index of 2.31. For L12E, the protein stability index was 1.8. In the case of L12N, the protein stability index is reported as 1.46. Work on L12R yielded a protein stability index of 2.23. For L12H, the protein stability index was 2.31.

Reference: the supplement of paper PMC10567573
